Values joined by “and” are separate entries in the source; they are usually repeats but may differ in a detail not shown here. Equal entries are not always repeated. Where two headings read alike, the source gives them in different places.

Experiment [1] addresses truncated Tissue Factor tTF219 (extracellular domain of the mature Tissue Factor protein, amino acids 1-219) (human).
Experiment [2] has the same target. This is another data set of the same source.
In experiment [3] the target is IgG-H6-N'-cys-tTF219 (human).
Experiment [4] addresses truncated Tissue Factor tTF219 (extracellular domain of the mature Tissue Factor protein, amino acids 1-219) (human). The source holds these as a separate data set.
Experiment [5] addresses H6-tTF221-cys-C' (human).
Experiment [6] deals with truncated Tissue Factor tTF219 (extracellular domain of the mature Tissue Factor protein, amino acids 1-219) (human). The source holds these as a separate data set.
For experiment [7], the target named is I-A^d (MHC Class II antigen) on A20 mouse B-lymphoma cells (mouse) (UniProt P04228).
The target in experiment [8] is truncated Tissue Factor tTF219 (extracellular domain of the mature Tissue Factor protein, amino acids 1-219) (human). The source holds these as a separate data set.
Experiment [9] concerns the target H6-tTF221-cys-C' (human). The source holds these as a separate data set.
Experiment [10] addresses H6-N'-cys-tTF219 dimer (human).

On to “B21-2/10H10 bispecific antibody (Fab' arm of B21-2 linked to Fab' arm of 10H10)”, for which the tTF concentration at which plasma coagulated in 50 seconds (A20 cells coated with B21-2/10H10) in experiment [1] came to 3 nM; in [2], 1 nM; in experiment [3], 5 nM; in [4], 500 pM; with tTF221-cys-C' (human), 500 pM; with tTF220-cys-C' (human) it was 500 pM. Also, the tTF concentration at which plasma coagulated in 50 seconds (A20 cells coated with B21-2/10H10) with H6-tTF220-cys-C' (human) amounted to 500 pM; with H6-tTF221-cys-C' (human) [5], 500 pM; with H6-N'-cys-tTF219 (human) it was 3 nM; with H6-tTF219-cys-C' (human), 3 nM; in experiment [8], 100 pM; with H6-tTF221-cys-C' (human) [9] it was 1 nM. Also, the tTF concentration at which plasma coagulated in 50 seconds (A20 cells coated with B21-2/10H10) in [10] is 100 pM and 200 pM. Moreover, the clotting time of citrated mouse plasma on A20 cells in experiment [6] and in [7] was 36 s each time.

The values above are taken from patent publication US6132730.
